The source of these data is WO2009030872A1 (dated 2009).

For assay [1], the target named is E1E2 of HCV genotype 2a isolate JFH-1 (hepatitis C virus genotype 2a, isolate …). Briefly: cell-based or functional assay.
For assay [2], the target named is T1, E1E2 of HCV genotype 1a isolate H77c (hepatitis C virus genotype 1a, strain …, UniProt P27958 386-729; P27958 193-382). Briefly: GNA capture ELISA on E1E2 of H77c. A general note: ELISA stands for enzyme-linked immunosorbent assay.
Assay [3] has as its target E1E2 of HCV isolate H77c with E2 substitution G523A (hepatitis C virus genotype 1a, isolate …, UniProt P27958 386-729; P27958 193-382). Briefly: GNA capture ELISA on alanine-substituted H77c E1E2.
Assay [4] has as its target E1E2 of HCV isolate H77c with E2 substitution W529A (hepatitis C virus genotype 1a, isolate …, UniProt P27958 386-729; P27958 193-382). Briefly: GNA capture ELISA on alanine-substituted H77c E1E2.
The target of assay [5] is E1E2 of HCV isolate H77c with E2 substitution G530A (hepatitis C virus genotype 1a, isolate …, UniProt P27958 386-729; P27958 193-382). Briefly: GNA capture ELISA on alanine-substituted H77c E1E2.
Assay [6] addresses E1E2 of HCV isolate H77c with E2 substitution D535A (hepatitis C virus genotype 1a, isolate …, UniProt P27958 386-729; P27958 193-382). Briefly: GNA capture ELISA on alanine-substituted H77c E1E2.
Assay [7] concerns the target T1, E1E2 of HCV genotype 1a isolate H77c. Briefly: inferred from GNA capture ELISA binding curve by non-linear regression.

B1: human monoclonal antibody clone 1:7 (antibody, V domains shown)
VH: VQLLEQSGAEVKKPGSSVKVSCQVFGDTFSRYTIQWLRQAPGQGPEWMGNIIPVYNTPNYAQKFQGRLSITADDSTSTAYMELSSLRSEDTAVYFCARVVIPNAIRHTMGYYFDYWGQGTLVTVSS
VL: AELTQSPATLSLSPGERATLSCRASQSVNKYLAWYQQKPGQAPRLLIYDASNRATGIPARFSGSGSGTDFTLTISNLEPEDFAVYYCQQRSDWVTFGGGTKVEIK
notes: also called mAb 1:7
What is called EC50 is the concentration at which the effect is half-maximal. A lower EC50 goes with a more potent agent. The term Kd denotes the constant that tells how readily two partners part at equilibrium. Read a high Kd as lower affinity. Regarding B1, the “IC50 of neutralization of HCVcc JFH-1 (density of E2 after western blotting)” value in assay [1] was approximately 60 ng/mL. The molecule also displayed a half-maximal effective concentration (EC50) in assay [2] of 0.67 µg/mL. The binding result in assay [3], in assay [4], in assay [5] and in assay [6] was “no binding” in each case. The Kd in assay [7] was approximately 4.1 nM.

B2: human monoclonal antibody clone A8 (antibody, V domains shown)
VH: EVQLLESGPGLVKPSGTLSLTCTVSGGSIRSSHWWSWVRQPPGKGLEWIGEVFFSGSTIYNPSLNDRVFMSVDKSKDQVSLRLSSVTAADTAVYYCARSPIKMNQGRMMLDAFDIWGQGTLVIVSS
VL: AELTQSPSSLSAFVGDRVTITCRASQSISRNLNWYQQKPGTAPKVLIYAASSLQSGVPSRFSGSGSGTDFTLTITSLQPEDFATYYCQQSYTTPRTFGQGTKVEVK
notes: also called mAb A8
B2: in assay [1], the “IC50 of neutralization of HCVcc JFH-1 (density of E2 after western blotting)” value was approximately 560 ng/mL. In assay [2], it took 0.44 µg/mL to reach a half-maximal effect (EC50). Also, the binding result in assay [3], in assay [4], in assay [5] and in assay [6] was “no binding” in each case. The molecule also returned a dissociation constant Kd in assay [7] of approximately 2.7 nM.

B3: human monoclonal antibody clone L1 (antibody, V domains shown)
VH: EVQLLESGGGVVQPGRSLRLSCAASGFTFSAYGMHWVRQAPGKGLEWVAGIWFDGSNQYYSDSVKGRFTVSRDNSRNTLFLQMNSLRPEDTAVYYCATEVLFGSIKGRYYLENWGQGTLVTVSS
VL: AELTQSPGTLSLSVGERATLSCRASQNIYSGYLGWYQQKPGQPPRLLIYGASNRATGIPDRFSGSGSGTDFTLTISRLESEDFAVYYCQQYGSPPYTFGQGTKVEIK
notes: also called mAb L1; Ll
For the molecule B3, in assay [2], the concentration giving a half-maximal response (EC50) worked out at 2.31 µg/mL. This molecule displayed a Kd in assay [7] of approximately 15 nM.
